Laboratory results: US7906310B2, “Proteases” (Novozymes A/S, priority 2003, dated 2011)

B1: Protease 18: protease from Nocardiopsis dassonvillei subsp. dassonvillei DSM 43235, amino acids 1-188 of SEQ ID NO: 12 (protein)
chain: APAPVPQTPVADDSAASMTEALKRDLDLTSAEAEELLSAQEAAIETDAEATEAAGEAYGGSLFDTETLELTVLVTDASAVEAVEATGAQATVVSHGTEGLTEVVEDLNGAEVPESVLGWYPDVESDTVVVEVLEGSDADVAALLADAGVDSSSVRVEEAEEAPQVYADIIGGLAYYMGGRCSVGFAAT
modifications: Nocardiopsis dassonvillei subspecies dassonvillei
B2: Brachysporiella protease: protease from Brachysporiella gayana CGMCC 0865, amino acids 1-186 of SEQ ID NO: 14 (protein, listed as Brachysporiella gayana)
chain: MELTSLIAALAVILPIAYGVPMDATTNLSPKVLAAMKRDLGLDAREATARVTFERRAGDVIEELRSSLGDSFAGAWVTDGKVINIGVTDQALVSKVKEAGAEPMVMKNSLGKLQEAKKKLDQIIKEKPKTLSTSGKPGIATYYVDIETNKLIITALSTSITQAEDLAKEVGLSESEFEVRKTEKMP
B3: Protease 08: protease from Nocardiopsis alba DSM 15647, amino acids 1-188 of SEQ ID NO: 10 (protein, listed as Nocardiopsis alba)
chain: ATGPLPQSPTPDEAEATTMVEALQRDLGLSPSQADELLEAQAESFEIDEAATAAAADSYGGSIFDTDSLTLTVLVTDASAVEAVEAAGAEAKVVSHGMEGLEEIVADLNAADAQPGVVGWYPDIHSDTVVLEVLEGSGADVDSLLADAGVDTADVKVESTTEQPELYADIIGGLAYTMGGRCSVGFAA
B4: Protease 11: protease from Nocardiopsis prasina DSM 15648, amino acids 1-188 of SEQ ID NO: 6 (protein, listed as Nocardiopsis prasina)
chain: ATGPLPQSPTPEADAVSMQEALQRDLGLTPLEADELLAAQDTAFEVDEAAAAAAGDAYGGSVFDTETLELTVLVTDAASVEAVEATGAGTELVSYGIEGLDEIIQDLNAADAVPGVVGWYPDVAGDTVVLEVLEGSGADVSGLLADAGVDASAVEVTSSAQPELYADIIGGLAYTMGGRCSVGFAATN

Test: Stability assay: residual activity after incubation with 1 mM inhibitor, measured by pNA assay
Assay type: physicochemical
Design: key to Residual Enzyme Activity: fraction of activity at 0 h incubation (0.80 = 80%)
Conditions: 25° C.
Method: Feature i) is determined as residual (=rest, or remaining) enzyme activity after having incubated the enzyme for 164 hours, at pH 7 and 25° C., in assay buffer supplemented with 0.1% K-Sorbate (for preservation purposes), and in the presence of 1 mM Cu^2+. The residual activity is measured relative to the activity after 0 hours of incubation. For the protease of the invention, the residual activity is at least 0.80 (=80%).
(§1) Protease activity is measured using the substrate Suc-AAPF-pNA, in assay buffer at pH 7.0 and 25° C. For more details, please refer to the pNA assay described in Example 4, which also describes in detail the determination according to i) and ii).
(§2) 20 ul (microliters) protease (diluted in 0.01% Triton X-100) was placed in a well of a micro titer plate. The assay was started by adding 200 ul pNA substrate (50 mg dissolved in 1.0 ml DMSO and further diluted 100× with assay buffer). The increase in OD405 was monitored as a measure of the protease activity.
The protease was diluted to approx. 1 mg/ml (see below) in assay buffer with 0.1% (w/v) K-sorbate (potassium salt of sorbic acid) and 1 mM inhibitor. The mixture was incubated at 25° C.). At intervals, a sample was withdrawn from the incubation (after thorough mixing) and frozen. After dilution in assay buffer, residual activity was measured using the pNA assay. For the 1 mM inhibitor additions, the incubation was diluted in assay buffer with 5 mM EDTA in order to see a pure stability effect.
Protease concentrations were estimated from the theoretical molar extinction coefficients, E280 (1 M), which can be calculated from the amino acid composition using the formula: E280 (1 M)=5690*NTrp+1280*NTyr+120*NCys, where NTrp, NTyr, and NCys are the number of Trp, Tyr, and Cys amino acid residues in the protease (Gill, S. C., von Hippel, P. H., Analytical Biochemistry 182: 319-326 (1989)) and the molecular weight, Mw, of the protease calculated from the amino acid sequence. From an A280 measurement of a pure protease sample (more than 95% pure according to Example 2), the protease concentration was calculated as: Conc (mg/ml)=(A280*MW)/E280 (1 M)).
The stability of the various proteases in the presence of the various inhibitors in a concentration of 1 mM was tested as described above. The only inhibitor that had some effect on the stability of some of the proteases was Cu^2+. However, the effect of this inhibitor was not the same on all the proteases: See the results in Table 2 below showing that Protease 18 and the Brachysporiella proteases are indeed stable in the presence of 1 mM Cu^2+, while the other proteases are not.

Molecule | Stability in the presence of 1 mM Cu2+
B1 | stable
B2 | stable

Same assay, conditions: incubation time 0 hours; 1 mM Cu2+; 25° C., pH 7, 0.1% K-sorbate; relative to 0 hours

Molecule | Residual Enzyme Activity
B1 | 1.000
B2 | 1.000
B3 | 1.000
B4 | 1.000

Same assay, conditions: incubation time 3.1 hours; 1 mM Cu2+; 25° C., pH 7, 0.1% K-sorbate; relative to 0 hours

Molecule | Residual Enzyme Activity
B1 | 0.985
B2 | 1.022
B3 | 0.936
B4 | 0.930

Same assay, conditions: incubation time 18.6 hours; 1 mM Cu2+; 25° C., pH 7, 0.1% K-sorbate; relative to 0 hours

Molecule | Residual Enzyme Activity
B1 | 1.008
B2 | 1.073
B3 | 0.867
B4 | 1.032

Same assay, conditions: incubation time 44.0 hours; 1 mM Cu2+; 25° C., pH 7, 0.1% K-sorbate; relative to 0 hours

Molecule | Residual Enzyme Activity
B1 | 1.003
B2 | 1.057
B3 | 0.842
B4 | 0.930

Same assay, conditions: incubation time 116.0 hours; 1 mM Cu2+; 25° C., pH 7, 0.1% K-sorbate; relative to 0 hours

Molecule | Residual Enzyme Activity
B1 | 0.982
B2 | 1.029
B3 | 0.767
B4 | 0.737

Same assay, conditions: incubation time 164.0 hours; 1 mM Cu2+; 25° C., pH 7, 0.1% K-sorbate; relative to 0 hours

Molecule | Residual Enzyme Activity
B1 | 1.030
B2 | 1.053
B3 | 0.721
B4 | 0.616

Same assay, conditions: incubation time 188.6 hours; 1 mM Cu2+; 25° C., pH 7, 0.1% K-sorbate; relative to 0 hours

Molecule | Residual Enzyme Activity
B1 | 0.993
B2 | 0.984
B3 | 0.703
B4 | 0.581

Same assay, conditions: pH 7, 25° C., 0.1% K-Sorbate, 164 hours

Molecule | Feature i): residual activity at least 0.80 after 164 hours with 1 mM Cu2+
B1 | fulfil feature i)
B2 | fulfil feature i)

Test: pNA assay: protease activity with 1 mM Cu2+ relative to control without Cu2+
Assay type: biochemical
Conditions: 1 mM Cu2+; enzyme 1 mg/l; Suc-AAPF-pNA; pH 7, 25° C.
Method: as §1
Feature ii) is determined as the enzyme activity in the presence of 1 mM Cu^2+, relative to the activity of the same enzyme under the same conditions, except for the presence of Cu^2+. For the protease of the invention, this relative activity is at least 0.66 (=66%). For the purposes of feature ii), enzyme (protease) activity is measured as described above.
pNA substrate: Suc-AAPF-pNA (Bachem L-1400) or Boc-VLGR-pNA (Bachem L-1205). Temperature: 25° C.
as §2
First, the effect of various Cu^2+ concentrations was tested with an enzyme dosage of 1 mg/l. At least in the range of 0 to 1 mM Cu^2+ there seemed to be a linear relationship between inhibition and concentration of Cu^2+, the inhibition manifesting itself as a decrease in the enzyme activity with increasing concentrations of Cu^2+ (the enzyme activity being measured as average OD405 increase/time from the linear part of dose/response curves).

Molecule | Enzyme Activity, +1 mM Cu^2+
B1 | 158.0 mOD405/min
B2 | 50.5 mOD405/min
B3 | 174.5 mOD405/min
B4 | 92.3 mOD405/min

Same assay, conditions: activity with 1 mM Cu2+ relative to control without Cu2+; enzyme 1 mg/l; Suc-AAPF-pNA; pH 7, 25° C.

Molecule | Relative Activity
B2 | 0.695
B4 | 0.691

Same assay, conditions: no Cu2+; enzyme 1 mg/l; Suc-AAPF-pNA; pH 7, 25° C.

Molecule | Enzyme Activity, Control (no Cu^2+)
B1 | 193.1 mOD405/min
B2 | 72.6 mOD405/min
B3 | 216.0 mOD405/min
B4 | 133.6 mOD405/min
